assay: soluble on expression in E. coli; label from the status in PepcDB or PDB records

| Sequence | soluble on expression in E. coli |
| --- | --- |
| MDVMALKREVIEYSRSIGIDKIGFASADPFVELKERLRRQQELGYQSGFEEPDIEKRTNPSLLLPEAKSIIAIALAYPSKMKNAPRGTKTERRGVFCRASWGKDYHDVLRERLQQLEEFLLAKVPHARVRSMVDTGELADRAVAERAGIGWSGKNCSIITPEFGSYVYLGEMITNIPFPPDEPVENRCGTCTKCIDACPTGALVQGGQLNAQRCLSFLTQTKGFLADEFREKIGNRLYGCDTCQQVCPENKGKDFHLHPEFEPDPEAVKPKLIPLLQMSNREFKETFGAMAGSWRGKKPIQRNAILALAHYKDQTAVPHLLRLLKEDSRPVIRGTAAWALGKIGDPSAKSYLEAARPTEADADVIAEIEKGLKLLAEAKE | not soluble |
| MGHDLADIKKSFEASLPGYVEKKDPKSILPQPGKRNILITAALPYVNNVPHLGNIIGCVLSADVFARYCNLRGHQTFYVGGTDEYGTATETKALQEGCTPRELCDKYHAIHKGIYEWFGIDFSHFGRTTTDHQTEICQDMFLKLHKNGYTSSQSVDQLYCNQCEKFLADRFVTGTCPMCAYDDARGDQCDGCGKLINAVDLKDAKCHMCKATPEVKQSTHIFLSLDKLQQKTTEHLDRELAKEDNRWSSNAVGITKAWMKLGLDPRCITRDLKWGTAVPLDGFEKKVFYVWFDAPIGYLSITKCVLGDNWTKWWKNPENVELFNFVGKDNVAFHAVMFPCSQLGANDNYTVVNNLCATEYLNYEDTKFSKSRGTGIFGDAAQGTEIPADIWRFYLLYMRPESQDTAFSWDDFVLKVNSELLNNLGNFINRALSFVANSFGGVVPEMNLTNDDAEVLSEIHNECMQWDKQFDGVHLKDAVKTILNVSRLGNQYMQAQTPWVLMKKDEEGKKRAGTIIGVAANIAYHVSVLLYPIMPTISATIREQCGLPALPLFTPFPICYLKAGHKIGQPSPLFQKLDPAQIAEFKAKFGGSQDAQSSAPKTAEKPKQQKKQAPTKDKKGDKKMASTAAFVELEQGAKVISQLIAQNLKKFDQAKALFTRNQLQRLDGENKQLTIDVKTLQHQLIELETAAGIKQVPKPVVSCTPTPTSTPASGIITEAPKKEAPSTPAPSEPKKAKEQKKGKGGAAAAPVDDTIDVGRLDMRVGRIIKCEKHPDADALYVEQIDVGESAPRTVVSGLVRHVPLDQMQNRLVVVLCNLKPAKMRGVESRAMVMCASSPDKVEIMEVPADSKPGTPVVCPPYTHRPDEQLNPKKKIWETVAEDLKVSAEGFAEWKGQPLLIGSESKMTAPTLRGVHVK | not soluble |
| MGIFSRFADIVNSNISALLDKAEDPEKMIRLIIQEMEDTLVEVRTNSAKAMADKKELARKVESIEQQLEDWQNKATLALTKQREDLARAALIEKQKLQHVLKGLHTEQMLVEETIEKLTGEIGKLETKITETRAKQQALAIRSQAASHRRDVQRHLHAGRTEEAMAKFEQFSRKVDELEAEADLYAQSGQARSLEQEFAELQAQDEIEKELNKLKAQMKSDQLEHHHHHH | soluble |
| MGSDKIHHHHHHMAEYFQDDLGFRPFNAQVNHCTRDLGFRLYEPSDVLFASFSDESGMRTYVRTLSFILSKAVADILPGSKLFIEHSLSNGYYCQIKNAHMITPGEIVRIKERMESLIVADIPFRAHCERTEEVAAMFRSMGYEDKADLLETKGMPYSRYYDLDGYPDYYYGSLAPSTGYIGLFGLEPYLDGVLLRIPRRDKPEELAPFVPQPMMRQVFADHDRLLDILQVTHVGSLNKAVDRNDISTMVQVSEAMQEKQIAAIADDIAHKYKEGVRVVLISGPSSSGKTTFCKRLQTQLLTNYIRPYGLSLDDYFINREDSPRDESGDYDFESLYALDLPLFNKDLKQMIAGEEVSLPTYDFATGMRVYKGNTIQLKDGDILILEGIHALNPELIPGVPESSTYKIYVSALTAIGLDAHNRIPSTDNRLIRRLVRDYRYRNYSGLGTLRRWQSVRRGEEKWVFPFQENAHVMFNSAMLYELAVLRAYAEPILQAIPRNEPEYAEARRLLRFLSSFRMIPARLLPNNSLMREFLGGSTFHY | not soluble |
| MAPTNKDGDVATVKAVDVLKQKAGAHHCLGNVHANLPVNKVTVHPLVLLSVVDHFNRVSKTQSVKRVVGVLLGSMKKDKTLDIGNSFAVPFDEDDKDKSTWFLDMDYLESMYGMFYKVAAKEKIVGWYHTGPKLHKNDIAINEQLKRFCPNPVLVIIDAEPKNIGLPTEAYIEVQEVHDDGTPPIKTFEHVPSDIGAEEAEEVGVEHLLRDIKDQTAGTLSQRITDQLMGLRGLQSQLESIEKYLHDIVRGTLPVNHHVIYYVQEVLNLLPDVTHPDYIVSQNVQTNDQLMCVYMGSLVRSVVALHNLIDNKISLQKAEKEQETGEAEKKKDEKDKKDKKDEKKDEKKEKDSKSSTPNTPKK | not soluble |
| REQGFMFKKELGIESMEDLIEKIRYYKIINRNKGSGTRILFDKFLKENDIDKNSINGYDIEAKTHSAVGAAVSMGKAQIGLGISTISDHYDLEFIPIADENYDLLIPKEKLYDEDIIKFIETLKNEELPFKKSKDTGKIIYGC | not soluble |
| MHEYELNQDLLAENKRLAEKNREALRESGTVAVNIMGAIGSGKTLLIERTIERIGNEVKIGAMLGDVVSKADYERVRRFGIKAEAISTGKECHLDAHMIYHRLKKFSDCDLLLIENVGNLICPVDFDLGENYRVVMVSVTEGDDVVEKHPEIFRVADLIVINKVALAEAVGADVEKMKADAKLINPRAKIIEMDLKTGKGFEEWIDFLRGILNVHSDSGQN | not soluble |
| SNRLPDDYDPYAVEEPSDEEPALSSSEDEVDVLLHGTPDQKRKLIRECLTGESESSSEDEFEKEMEAELNSTMKTMEDKLSSLGTGSSSGNGKVATAPTRYYDDIYFDSDSEDEDRAVQVTKKKKKKQHKIPTNDELLYDPEKDNRDQAWVDAQRRGYHGLGPQRSREQQPVPNSDAVLNCPACMTTLCLDCQRHESYKTQYRAMFVMNCSINKEEVLRYKASENRKKRRVHKKMRSNQEDAAEKAETDVEEIYHPVMCTECSTEVAVYDKDEVFHFFNVLASHS | soluble |
| MKIAVAGSGYVGLSLGVLLSLQNEVTIVDILPSKVDKINNGLSPIQDEYIEYYLKSKQLSIKATLDSKAAYKEAELVIIATPTNYNSRINYFDTQHVETVIKEVLSVNSHATLIIKSTIPIGFITEMRQKFQTDRIIFSPEFLRESKALYDNLYPSRIIVSCEENDSPKVKADAEKFALLLKSAAKKNNVPVLIMGASEAEAVKLFANTYLALRVAYFNELDTYAESRKLNSHMIIQGISYDDRIGMHYNNPSFGYGGYCLPKDTKQLLANYNNIPQTLIEAIVSSNNVRKSYIAKQIINVLKEQESPVKVVGVYRLIMKSNSDNFRESAIKDVIDILKSKDIKIIIYEPMLNKLESEDQSVLVNDLENFKKQANIIVTNRYDNELQDVKNKVYSRDIFGRD | soluble |
| MESDPMFIGFGYDRHPLVEGRRLVLAGVEIDAPLGSLGHSDGDVLSHAIIDALLGAGCLGDIGTWFPETKEYKDANSLDLLKETVKILEERGFSVVNVDATVVASIVKLSPYREKIVENLKSALETSRVNVKFKSGNTLGFEGEERGISAYAVCLVEEKGCTKST | not soluble |
| MGSDKIHHHHHHMVGIILASHGEFAKGILQSGAMIFGDQENVQAVTLMPSEGPDDVKAKMKDAIASFDNQDEVLFLVDLWGGTPFNQANSLFEEHKDKWAIVAGMNLPMVIEAYGARLSMESAHEIAASIISTAKEGVKVKPEELEPEDAGKASQGSAKQSNTGAPGSFEYVLARIDSRLLHGQVATAWTKAMQPTRIIVVSDAVAKDELRKKLIQQAAPPGVKAHVVPINHMIKLAKDDQHFGGQRAMLLFENPEDVLRVVEGGVPLKTINVGSMAHSTGKVQPNKVLAFNQEDIDTFNKLKQSGLTFDVRKVPNDSKGNMDEIIKKAQDELNKQK | not soluble |
| MLKSIELNSHIRNRLAEYLKGRGMDFQTAMQEEKGNKEIAAIVHSGLPTLVRKLYSEQKMQKFFWEKRDLIADYISRRMQG | not soluble |
| MSLVTLRSLAQQLKVHVSTVSRVLNGTDDDARNAAAPETVERIRELAQQLNYRPNPHAIGLRTQKTRTVSVLVPQLSDLVVATIYEGIDAAAADSRYLTFVANTGDAPPRQRQLGEMALDRRVEGLIFADARRDDTRFLDEIARRGVPMVLVSRHLGTHCAVTCDDVAGGRMAAEHLLALGHRDIAVLAGEQYASTGCDRSAGFIAYCREQGVDIPAKWILHGPFDTRAGRLAGEKLFRSARKPSAVFAVNDFLAIGLMGAVRDRGLRAGHDVAIVGFNDTPLAAELPISLTTIRSPMHAMGYRSMELLLERIKGGRPASERLAPQLMVRASTCPREGIITITTDPNSSSVDKLAAALEHHHHHH | soluble |
| MSLGRRAAIYARYSTELQDGRSIDDQVALCREHAARSGLTVVATYDDRAKTSASIFGRDGLARMMEQARARQFDVVIVEALDRLSRDQEDLAHIHKRLSFARIDILTVHEGVADSVSVGLRGLMGTMFLEALKAKTRRGLAGVIRDGRHAGGQTYGYRGVPGEPGKREIVAHEAEIIREIFAAYVEGKSPRTIAGELNARGIAAPRGPKWNASTLNGNPQRGYGILRNPMYDGRLVWNRVTMVRDPDTGRRVNRENPLDARQEVEAEHLRIVPRPLFEAAVRRHAQQAEAVRTGKITKAPPRPFSGLIRCACCGGGMSIHDRCGEAIRIRCSTANESGSCENKARYRLEKIEEAIFLRLRAQLDRPDYLKEFVRVYAEERRRLTETARRDRARLERAAADSRARYMRLVDMMARGLIEGEEADAQVLQAKQAAEIARSELEIASSEDNVVELHPQATAAYTRAIADLSAALQRGDGTFDATSVEALRRIITEITVHPKDEAGDVLVEVRGNMERLLGIGQQIVGGPMVARGGLEPPTPREGHHHHHH | not soluble |
| MCGRFTLTLPPDLLAEIIGEIEAARVQPRYNIAPAQEVAVVRQDAGGRRHLDYLRWGLIPPWAKDASVGNHMINARSETVAEKPAFRHAFRSRRCLVLASGFYEWKAEGNRKQPLYIHMKDGGPMVFAGLWESWKSPEGAIVESCTILTTYSNSLIRPLHDRMPVILGRSDWDIWLSREATSEELTPLFQPYPSDLLAMYPVGTGVNSPRNDSPDLLEPLNEPLEHHHHHH | not soluble |
| MGSSHHHHHHSSGLVPRGSHMQKPIKKDPNRYHGEKMTEFSEWFHNILEEAEIIDQRYPVKGMHVWMPHGFMIRKNTLKILRRILDRDHEEVLFPLLVPEDELAKEAIHVKGFEDEVYWVTHGGLSKLQRKLALRPTSETVMYPMFALWVRSHTDLPMRFYQVVNTFRYETKHTRPLIRVREITTFKEAHTIHATASEAEEQVERAVEIYKEFFNSLGIPYLITRRPPWDKFPGSEYTVAFDTLMPDGKTLQIGTVHNLGQTFARTFEIKFETPEGDHEYVHQTCYGLSDRVIASVIAIHGDESGLCLPPDVAAHQVVIVPIIFKKAAEEVMEACRELRSRLEAAGFRVHLDDRDIRAGRKYYEWEMRGVPLRVEIGPRDLEKGAAVISRRDTGEKVTADLQGIEETLRELMKDILENLRTRAWERMESEIREAETLEEASRIVDEKRGIISFMWCGEEECGMDVEEKVRVDILGIQEEGSGTCINCGREAPYRAYLARTY | soluble |
| LSLTQLSSGNPVYEKYYRQVEAGNTGRVLALDAAAFLKKSGLPDLILGKIWDLADTDGKGVLSKQEFFVALRLVACAQNGLEVSLSSLSLAVPPPRFHD | soluble |
| MGSDKIHHHHHHMRGIGLTHAFADISGLAFDRLFMVTETDGTFITARQFPQMVKFIPAPLHDGLHLSAPDGSSAVVRFSDFATQAEPTEVWGNHFTALIAPAAVNQWLSGFFKRDVQLRWLGPQLTRRVKRHDAVPLSFADGYPYLLANEASLRDLQQRCPASVSIEQFRPNLVVTGAAAWDEDSWKVIRIGEVVFDVAKPCSRCIFTTISPERGQKHPAGEPLETLKRFRTALDNGDVDFGQNLIARNSGVIRVGDEVEILTRGPAKAYGAGESDDTPAPEAQQQATVAIEWQGQQFTGNNQQVLLEQLEQQGIRVPYSCRAGICGSCRIRLEEGEVSPLKKNAVAGDGTILACSCVPKTALRLAP | not soluble |

Source: the DeepSol protein solubility set
